Measured values as given in patent US20110201130A1.

Key:
[1] = target: human B-type natriuretic peptide (human); experiment: sandwich CMIA, capture 106.3 AM1, hBNP 0 pg/mL (blank)
[2] = target: human B-type natriuretic peptide (human); experiment: sandwich CMIA, capture 106.3 AM1, hBNP 30 pg/mL (8.67 pM)
[3] = target: human B-type natriuretic peptide (human); experiment: sandwich CMIA, capture 106.3 AM1, hBNP 150 pg/mL (43.3 pM)
[4] = target: human B-type natriuretic peptide (human); experiment: sandwich CMIA, capture 106.3 AM1, hBNP 300 pg/mL (86.6 pM)
[5] = target: human B-type natriuretic peptide (human); experiment: sandwich CMIA, capture 106.3 AM1, hBNP 1000 pg/mL (288.7 pM)
[6] = target: human B-type natriuretic peptide (human); experiment: sandwich CMIA, capture 106.3 AM1, hBNP 2000 pg/mL (577.4 pM)
[7] = target: human B-type natriuretic peptide (human); experiment: sandwich CMIA, capture BNP 3-631-436 ms, hBNP 0 pg/mL (blank)
[8] = target: human B-type natriuretic peptide (human); experiment: sandwich CMIA, capture BNP 3-631-436 ms, hBNP 30 pg/mL (8.67 pM)
[9] = target: human B-type natriuretic peptide (human); experiment: sandwich CMIA, capture BNP 3-631-436 ms, hBNP 150 pg/mL (43.3 pM)
[10] = target: human B-type natriuretic peptide (human); experiment: sandwich CMIA, capture BNP 3-631-436 ms, hBNP 300 pg/mL (86.6 pM)
[11] = target: human B-type natriuretic peptide (human); experiment: sandwich CMIA, capture BNP 3-631-436 ms, hBNP 1000 pg/mL (288.7 pM)
[12] = target: human B-type natriuretic peptide (human); experiment: sandwich CMIA, capture BNP 3-631-436 ms, hBNP 2000 pg/mL (577.4 pM)
[13] = target: human pro B-type natriuretic peptide (human); experiment: sandwich CMIA, capture 106.3AM1, proBNP spike 103 pg/mL, read off hBNP curve
Chain of human pro B-type natriuretic peptide (human) (chain, as listed by the source): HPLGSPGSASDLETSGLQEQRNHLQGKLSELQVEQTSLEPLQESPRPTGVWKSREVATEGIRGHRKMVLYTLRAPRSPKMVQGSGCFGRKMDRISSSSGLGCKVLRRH

[14] = target: human pro B-type natriuretic peptide (human); experiment: sandwich CMIA, capture 106.3AM1, proBNP spike 515 pg/mL, read off hBNP curve
[15] = target: human pro B-type natriuretic peptide (human); experiment: sandwich CMIA, capture 106.3AM1, proBNP spike 1031 pg/mL, read off hBNP curve
[16] = target: human pro B-type natriuretic peptide (human); experiment: sandwich CMIA, capture 106.3AM1, proBNP spike 3436 pg/mL, read off hBNP curve
[17] = target: human pro B-type natriuretic peptide (human); experiment: sandwich CMIA, capture 106.3AM1, proBNP spike 6872 pg/mL, read off hBNP curve
[18] = target: human pro B-type natriuretic peptide (human); experiment: sandwich CMIA, capture BNP 3-631-436 ms, proBNP spike 103 pg/mL, read off hBNP curve
[19] = target: human pro B-type natriuretic peptide (human); experiment: sandwich CMIA, capture BNP 3-631-436 ms, proBNP spike 515 pg/mL, read off hBNP curve
[20] = target: human pro B-type natriuretic peptide (human); experiment: sandwich CMIA, capture BNP 3-631-436 ms, proBNP spike 1031 pg/mL, read off hBNP curve
[21] = target: human pro B-type natriuretic peptide (human); experiment: sandwich CMIA, capture BNP 3-631-436 ms, proBNP spike 3436 pg/mL, read off hBNP curve
[22] = target: human pro B-type natriuretic peptide (human); experiment: sandwich CMIA, capture BNP 3-631-436 ms, proBNP spike 6872 pg/mL, read off hBNP curve

Chain of human B-type natriuretic peptide (human) (peptide, as listed by the source): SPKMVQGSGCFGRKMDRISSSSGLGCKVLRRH

monoclonal antibody BC203
RLU [1]: 768 RLU | RLU [2]: 1030 RLU | RLU [3]: 3850 RLU | RLU [4]: 8760 RLU | RLU [5]: 65500 RLU | RLU [6]: 223000 RLU | RLU [7]: 803 RLU | RLU [8]: 1340 RLU | RLU [9]: 4690 RLU | RLU [10]: 11900 RLU | RLU [11]: 83500 RLU | RLU [12]: 270000 RLU | Readback [13]: 117 pg/mL | Recovery [13]: 114% | Readback [14]: 190 pg/mL | Recovery [14]: 36.8% | Readback [15]: 456 pg/mL | Recovery [15]: 44.2% | Readback [16]: 1370 pg/mL | Recovery [16]: 39.7% | Readback [17]: 2830 pg/mL | Recovery [17]: 41.2% | Readback [18]: -5.3 pg/mL | Recovery [18]: -7% | Readback [19]: 40.8 pg/mL | Recovery [19]: 10.9% | Readback [20]: 111 pg/mL | Recovery [20]: 14.8% | Readback [21]: 482 pg/mL | Recovery [21]: 19.3% | Readback [22]: 895 pg/mL | Recovery [22]: 17.9%
